Experimental data reported in article PMC6395885.

Assays:
[1] = molecular target: protein kinase A (PKA) regulatory subunit RI (human (endogenous in HPAEC)) (UniProt P10644); experiment: non-reducing SDS-PAGE with Western blot
[2] = molecular target: phosphorylated cAMP response element-binding protein (CREB) (human (endogenous in HPAEC)); experiment: co-IP
Sequence of phosphorylated cAMP response element-binding protein (CREB) (human (endogenous in HPAEC)) (P16220 whole entry): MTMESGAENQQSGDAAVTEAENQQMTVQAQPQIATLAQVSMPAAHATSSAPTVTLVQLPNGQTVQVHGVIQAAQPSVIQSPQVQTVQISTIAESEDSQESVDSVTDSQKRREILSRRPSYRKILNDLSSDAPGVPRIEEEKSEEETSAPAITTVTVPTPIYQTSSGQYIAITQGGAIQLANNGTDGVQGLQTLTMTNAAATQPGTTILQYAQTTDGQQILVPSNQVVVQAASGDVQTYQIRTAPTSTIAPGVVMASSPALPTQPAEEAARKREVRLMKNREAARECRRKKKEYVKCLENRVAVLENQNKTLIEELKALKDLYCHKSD

| fold change of the dimer band, 100 µM H2O2 against 0 µM H2O2 [1] | fold change of co-precipitated Ref-1, hypoxia against normoxia [2] | Substance |
| --- | --- | --- |
| 3.3 fold | – | protein kinase A (PKA) regulatory subunit RI (from UniProt P10644 1-381) (natural protein) |
| – | 1.81 fold | redox factor 1 (Ref-1) (from UniProt P27695 1-318) (natural protein) |
